Patent US20090192289A1 (Genentech, published 2009)
Where no end group is shown, it is not given here. The star is where a group is joined. Biotin = O=C1N[C@H]2[C@H](CS[C@H]2CCCCC(=O)*)N1

Key:
[1] = molecular target: T1, phage-displayed Omi PDZ (phagemid p8hOmi) (human; M13 bacteriophage); assay: phage selection and phage ELISA on NeutrAvidin-immobilized peptide
T1 construct: Multivalent display on phage; not shown: M13 gene-8 coat protein
T1 chain: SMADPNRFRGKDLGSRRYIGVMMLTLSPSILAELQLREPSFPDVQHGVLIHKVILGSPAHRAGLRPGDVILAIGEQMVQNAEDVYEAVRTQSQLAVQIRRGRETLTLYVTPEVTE
Protocol: Library Sorting and Analysis—Phage from the libraries described above were propagated in E. coli XL1-blue with the addition of KO7 helper phage. After overnight growth at 37° C. (for peptide library) or 30° C. (for shotgun library), phage were concentrated by precipitation with PEG/NaCl and resuspended in PBS, 0.5% BSA, 0.1% Tween 20, as described previously(19). Phage solutions (10¹² phage/mL) were added to 96-well maxisorp immunoplates that had been coated with capture target and blocked with BSA. For shotgun library sorting, two different targets were used; for the display selection the target was an immobilized antibody that recognized the epitope tag fused to the N terminus of Omi PDZ, while for the function selection a biotinylated peptide that binds to Omi PDZ with high affinity (biotin-SWTMFWV) was immobilized on NeutrAvidin-coated plates. Following a 2 h incubation to allow for phage binding, the plates were washed 10 times with PBS, 0.05% Tween 20. Bound phage were eluted with 0.1 M HCl for 10 min and the eluent was neutralized with 1.0 M Tris base. Eluted phage were amplified in E. Coli XL1-blue and used for further rounds of selection.
Shotgun alanine-scanning of Omi PDZ domain—By superimposing the structure of Omi PDZ with the structure of Erbin PDZ-ligand complex(20), we identified a region that is directly involved or adjacent to the peptide binding site. […]

[2] = molecular target: T2, GST-Omi PDZ fusion protein (human, UniProt O43464 359-458); assay: competition ELISA, immobilized biotin-GWTMFWV
T2 construct: also called GST-hOmiPDZ; hOmi PDZ domain; not shown: glutathione S-transferase (GST) encoded by plasmid pGEX6P-3
T2 sequence: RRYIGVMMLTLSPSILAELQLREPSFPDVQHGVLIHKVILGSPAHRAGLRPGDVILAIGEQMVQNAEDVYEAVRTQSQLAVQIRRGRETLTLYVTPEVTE
Protocol: Affinity Assays—The binding affinities of peptides for Omi PDZ were determined as IC₅₀ values using a previously described competition ELISA(18). The IC₅₀ value was defined as the concentration of peptide that blocked 50% of PDZ domain binding to immobilized peptide. Assay plates were prepared by immobilizing an amino-terminally biotinylated peptide (biotin-GWTMFWV) on maxisorp plates coated with NeuTravidin and blocked with BSA. A fixed concentration of GST-Omi PDZ fusion protein (20 nM) in PBS, 0.5% BSA, 0.1% Tween 20 (PBT buffer) was preincubated for 1 h with serial dilutions of peptide and then transferred to the assay plates. After 1 h incubation, the plates were washed with PBS, 0.05% Tween 20, incubated for 30 min with HRP/anti-GST antibody (1:10,000) in PBT buffer, washed again, and detected with 3,3′,5,5′-Tetramethyl-benzidine/H₂O₂ (TMB) peroxidase substrate.

B1: biotin-SWTMFWV (peptide)
peptide: Biotin-SWTMFWV
notes: Immobilized on NeutrAvidin-coated plates for shotgun library sorting
binding result [1]: binds

H-WGGWLG-NH2 (also called WGGWLG) [hOmi_n1_t8]
binding result [2]: no binding

H-SHWWG-NH2 (also called SHWWG) [hOmi_n1_t4]
binding result [2]: no binding

H-WWGGWLG-NH2 (also called WWGGWLG) [hOmi_n1_t7]
binding result [2]: no binding
